From the DeepSol protein solubility set come the findings set out here.

This data set is described as follows: soluble on expression in E. coli; label from the status in PepcDB or PDB records.
In the case of “MTQAATILRTGRKFDQVLRGAREVFMSDGFEGANVDDIARAAGVSKATLYSYFPDKRLLFVEVAQTECQLMAERILSMIDEDRPVREVLTITATQLVAFLISDFAQQVFRICLAERERFPELARAFYAAGPENGQRQICEYLEKAVTKGELVIADIPMAAEQFSELCKTRLWTRAVFGIQTRFTQAEIDEVALAAVDTFLARYGA”, the “soluble on expression in E. coli” value is on record as “not soluble”. In the case of “MTQGAVKTTGKRSRAVSAKKKAILSAALDTFSQFGFHGTRLEQIAELAGVSKTNLLYYFPSKEALYIAVLRQILDIWLAPLKAFREDFAPLAAIKEYIRLKLEVSRDYPQASRLFCMEMLAGAPLLMDELTGDLKALIDEKSALIAGWVKSGKLAPIDPQHLIFMIWASTQHYADFAPQVEAVTGATLRDEVFFNQTVENVQRIIIEGIRPR” it was “soluble”.

As to “MTQISERLLVQAHLDAKQPNPLTAEQEAEYRAAIAAELKAQNAVLVAHYYCDPVIQALAEETGGCVSDSLEMARFGKNHPAETVIVAGVRFMGETAKILTPEKRVLMPTLEATCSLDLGCPVEEFSAFCDQHPERTVVVYANTSAAVKARADWVVTSSCALEIVESLMDNGETIIWGPDQHLGRYIQKQTGADMLLWDGACIVHEEFKSRQLADMKALYPDAAILVHPESPEAVIELADAVGSTSQLIKAAQTLPNKTFIVATDRGIFYKMQQLCPDKEFVEAPTAGNGAACRSCAHCPWMAMNTLERVLDCLRNGTNEIFVDPALVPKAIKPLNRMLDFTQAARLKLSGNALEHHHHHH”, the “soluble on expression in E. coli” value was “not soluble”.

“MTQPAIQLTEYQRKWIEDKSRFKISLKARQTGFSFAVSLEVVLDAVERRTTWVLLSRGERQSKELMEKVAMHARAIGVACEELETTFKIDDKDIKQLEVRFPNGSKVIGLPANPDTARGFSGNVVLDEFAFHADSRKIWTALYPTITRGYKIRVISTPNGKSGKFYDLWMDNTGTWSKHFVDIYMAKEQGLDIDIDELRKGCESEDDWLQEFCCEFIDENGALLPYELITPCETDEATFTLPEDFTPQGDLTLGVDIGRKRDLTVMWVLEYTGTLYWTRAIHILEKQKFSVQREQLFTYLSMPRMRRACIDATGIGMQLAEEAVEAFGSKVEAVEFTGPVKQELAITQRRVFEDRAVRIPIDRVLRNDLHSVQKITTAAGNIRYAAERSEHGHADRFWALALALHAAINNPFVPLETKVARHSTMRRAMEGYG”: the “soluble on expression in E. coli” value is recorded as “not soluble”.

As for “MTQPLVGKQILIVEDEQVFRSLLDSWFSSLGATTVLAADGVDALELLGGFTPDLMICDIAMPRMNGLKLLEHIRNRGDQTPVLVISATENMADIAKALRLGVEDVLLKPVKDLNRLREMVFACLYPSMFN”, the “soluble on expression in E. coli” value was “soluble”. As to “MTQTVYVKLSQITQVHKKDVFLSDIADVYCSDKSTASRCKAVKVQTIHSDQEKRYMGSIVDVVQKISENVPEAEVNSVGETDFIIDYQPSKKPMYTWQW”, the “soluble on expression in E. coli” value is “not soluble”. The entry for “MTQTYNADAIEVLTGLEPVRRRPGMYTDTTRPNHLGQEVIDNSVDEALAGHAKRVDVILHADQSLEVIDDGRGMPVDIHPEEGVPAVELILCISVVNALSKRVEVNVRRDGQVYNIAFENGEKVQDLQVVGTCGKRNTGTSVHFWPDETFFDSPRFSVSRLTHVLKAKAVLCPGVEITFKDEINNTEQRWCYQD” is “soluble”. The entry for “MTRIIASLSEVSAGYSALFCDLWGCLHDGKRPFAEAVEALRAFRARGGTVLLMTNAPRPKPSVVRQLESIGVPPDCYDEVTSSGDAAQYALVTGAVGRRVYHLGPQKDETFFTELSPDLQKVAATEAPIVRVPLEEAEGIVCTGLFDDLTETPEDYRATLLYAKTQGLKLLCANPDIVVDFGDKRIYCAGAIAEAYDAMGGQSLYFGKPHPPIYDLARRRLEALRPGVPADEILCVGDGIATDIRGAVAEGLDSLFITGGLAASVFGENGE” is “not soluble”; for “MTRLTVFKPRSLVSILMFTTVWAVGSASASTLDLEAQRAQYDKAQRWLDEKNVAQYQRIRKQIDSYPLTPYLDYRAFLIDLGSKPPIAVRNFIDSHKEYPFSARIAAPYLDALARSKKWSALLQFQTQLPNGETYQCHYYNAKLQTGKRNEAFEGAKKLWLNGASIADACDPLFAEWDRVGGLSDDWVLKRALLAFEGRNRNLIVYLQKKLDGKKSQAKAQGMLELFDKPERVLAYSRKASQDPINQKLAELALQKWARSEPQEAQAVFNDVAKAQGWNQEQKGRVARFIAIRLMDTEEAAIAKWRDEVTRTSQDVRLIEARIRLALRENDWRGLSQWIAVLPEQERKTLRWQYWQGRSEIALGKKKEGTERLKALLGQRSFYSVAAAKILQQSVNYPTSTVTLDMKQIKAHKKALARIDELIALDKVPAAKSEWRWLLDRVSQKEKEMLAAYAADSGWYQMTIAATISASLWDNNQLRFPVVHQNLFTLHGRKNGVDPITLMSLARQESALNPDAQSPVGARGLMQIMPDTARYTARKYQLSYSNPDELYQVGKNIEIGSRYLSSLLERYDQNRILAFAAYNAGPSRVDSWLKRSQGKLDAYGFIEAIPFAETRGYVQNILMFETYYRDLMGVQGRFLNEHELNTKY” it is “soluble”.

In the case of “MTRQEELAAARAALHDLMTGKRVATVQKDGRRVEFTATSVSDLKKYIAELEVQTGMTQRRRGPAGFYV”, the “soluble on expression in E. coli” value was “soluble”. The entry for “MTRRDNEERVLHAATDTEQSQVTDLRQNVSATPLTDAEVGRLQLLEERATVQVERQGIGQVQVRKVVRERQEMVPVTLTTEVLEIVVTPAAQGTGAQNVGDTQTAAASAAGTTGNGGVSQVLIDGKPLEAGQTYEIPLTEERVQVMRQVVPLSEVVVRRQAQATTHEETVTLRREELEVLDEQGLARIVDEGAALEHHHHHH” is “soluble”; for “MTRSEKTRHFGNQNYEKLRKICIKKKQPFVDTLFPPTNQSLFLEQRQSSDIVWKRPGELHPDPHLFVEGASPNDVTQGILGNCWFVSACSALTHNFKLLAQVIPDADDQEWSTKHAYAGIFRFRFWRFGKWVEVVIDDLLPTRDGKLLFARSKTPNEFWSALLEKAFAKLYGCYENLVGGHLSDALQDVSGGVAETLHVRKFLKDDPNDTELKLFNDLKTAFDKGALVVAAIAARTKEEIEESLDCGLVKGHAYAVSAVCTIDVTNPNERSFTSFIMGSKRKQNLIRLQNPWGEKEWNGAWSDDSPEWQNVSASQLSTMGVQPANSDSDDGDFWMPWESFVHYFTDISLCQLFNTSVFSFSRSYDEQIVFSEWTTNGKKSGAPDDRAGGCHNFKATFCNNPQYIFDIPSPNCSVMFALIQNDPSEGLKKREPFVTIGMHVMKVENNRQYRVHTAMHPIAISDYASGRSVYLHLQSLPRGRYLLIPTTFAPKEQTLFMLRVYSDEHIHFSPLTKHAPKLGLLKCKSAQSVTRLTIHGVDFNSASTGTHNVYAILKDSRKSFRTKTLSGVKSIQWDEQFLFHKSKNRQQYKIEVWEDRKMARDHLLAQSVIIALIDNENRDTTLQLTDPRGTVIGTVSVTVSAFDDPMYL” it is “not soluble”; for “MTSAEMTSPNNNSEHQAIAKMRTMIEGFDDISHGGLPIGRSTLVSGTSGTGKTLFSIQFLYNGIIEFDEPGVFVTFEETPQDIIKNARSFGWDLAKLVDEGKLFILDASPDPEGQEVVGGFDLSALIERINYAIQKYRARRVSIDSVTSVFQQYDASSVVRRELFRLVARLKQIGATTVMTTERIEEYGPIARYGVEEFVSDNVVILRNVLEGERRRRTLEILKLRGTSHMKGEYPFTITDHGINIFPLGAMRLTQRSSNVRVSSGVVRLDEMCGGGFFKDSIILATGATGTGKTLLVSRFVENACANKERAILFAYEESRAQLLRNAYSWGMDFEEMERQNLLKIVCAYPESAGLEDHLQIIKSEINDFKPARIAIDSLSALARGVSNNAFRQFVIGVTGYAKQEEITGLFTNTSDQFMGAHSITDSHIATITDTIILLQYVEIRGEMSRAINVFKMRGSWHDKAIREFMISDKGPDIKDSFRNFERIISGSPTRITVDEKSELSRIVRGVQEKGPES” it is “soluble”.

Consider “MTSALATGLATITADGTVLDAWFPAPELTAVDTTGTTVLDGDDIPEHLRLLVGEDADRGVRRQAITTTIADLDAAPIDAYDAYLRLHLLSHRLVKPHGQNLDGIFGLLTNVVWTNHGPCEVKNFDITRAKLQARGPVTVYLVDKFPRMVDYVLPSGVRIGDADRVRLGAHLAEGTTVMHEGFVNFNAGTLGNSMVEGRISAGVVVDDGSDVGGGASIMGTLSGGGKQVISLGKRCLLGANSGCGIPLGDDCVIEAGLYVTAGSKIIVRGAVAEATGLNDGDTTKALELAGANNILFRRNSISGAIEATAWKSQAVELNDALHAN”, for which the “soluble on expression in E. coli” value was “soluble”.
